Measurements as given in patent publication US20250152746A1, “BASE EDITING OF ANGPTL3 AND METHODS OF USING SAME FOR TREATMENT OF DISEASE” (Verve Therapeutics, Inc., priority 2020, published 2025).
In the oligonucleotide strings, read from the 5' end, every base follows the letter of its sugar. An asterisk marks phosphorothioate; unmarked linkages are phosphodiester. Other units and linkages are bracketed, terminal groups are in braces. A string of capitals states the bases alone. m = 2'-O-methyl; r = 2'-OH (RNA)

B1: GA181: PCSK9 gRNA; protospacer GGCTTCCTGGTGAAGATGAG (SEQ ID NO: 175) (nucleic acid)
guide: mG*mG*mC*rUrUrCrCrUrGrGrUrGrArArGrArUrGrArGrGrUrUrUrUrArGrArGrCrUrArGrArArArUrArGrCrArArGrUrUrArArArArUrArArGrGrCrUrArGrUrCrCrGrUrUrArUrCrArArCrUrUrGrArArArArArGrUrGrGrCrArCrCrGrArGrUrCrGrGrUrGrCrU*mU*mU*mU
B2: GA171: PCSK9 gRNA; protospacer TCTTGGTGAGGTATCCCCGG (SEQ ID NO: 165) (nucleic acid)
guide: UCTTGGTGAGGTATCCCCGGGTTTTAGAGCTAGAAATAGCAAGTTAAAATAAGGCTAGTCCGTTATCAACTTGAAAAAGTGGCACCGAGTCGGTGCTTTT
modifications: 2'-O-methyl at 1, 2, other sugars, backbone and T or U not given here; further chemistry not fully specified
B3: GA172: PCSK9 gRNA; protospacer CAGTGCGCTCTGACTGCGAG (SEQ ID NO: 166) (nucleic acid)
guide: CAGUGCGCUCUGACUGCGAGGUUUUAGAGCUAGAAAUAGCAAGUUAAAAUAAGGCUAGUCCGUUAUCAACUUGAAAAAGUGGCACCGAGUCGGUGCUUUU
modifications: sugars from the 5' end m3 r94 m3, linkages s3 o93 s3 (s phosphorothioate, o phosphodiester), T or U not given here
B4: GA174: PCSK9 gRNA; protospacer GGATCTTGGTGAGGTATCCC (SEQ ID NO: 168) (nucleic acid)
guide: GGAUCUUGGUGAGGUAUCCCGUUUUAGAGCUAGAAAUAGCAAGUUAAAAUAAGGCUAGUCCGUUAUCAACUUGAAAAAGUGGCACCGAGUCGGUGCUUUU
modifications: sugars from the 5' end m3 r94 m3, linkages s3 o93 s3 (s phosphorothioate, o phosphodiester), T or U not given here
B5: GA180: PCSK9 gRNA; protospacer GCGCACTGCCCGCCGCCTGC (SEQ ID NO: 174) (nucleic acid)
guide: mG*mC*mG*rCrArCrUrGrCrCrCrGrCrCrGrCrCrUrGrCrGrUrUrUrUrArGrArGrCrUrArGrArArArUrArGrCrArArGrUrUrArArArArUrArArGrGrCrUrArGrUrCrCrGrUrUrArUrCrArArCrUrUrGrArArArArArGrUrGrGrCrArCrCrGrArGrUrCrGrGrUrGrCrU*mU*mU*mU
B6: GA176: PCSK9 gRNA; protospacer AGCACCACCACGTAGGTGCC (SEQ ID NO: 170) (nucleic acid)
guide: AGCACCACCACGUAGGUGCCGUUUUAGAGCUAGAAAUAGCAAGUUAAAAUAAGGCUAGUCCGUUAUCAACUUGAAAAAGUGGCACCGAGUCGGUGCUUUU
modifications: sugars from the 5' end m3 r94 m3, linkages s3 o93 s3 (s phosphorothioate, o phosphodiester), T or U not given here
B7: GA175: PCSK9 gRNA; protospacer GAAGATGAGTGGCGACCTGC (SEQ ID NO: 169) (nucleic acid)
guide: GAAGAUGAGUGGCGACCUGCGUUUUAGAGCUAGAAAUAGCAAGUUAAAAUAAGGCUAGUCCGUUAUCAACUUGAAAAAGUGGCACCGAGUCGGUGCUUUU
modifications: sugars from the 5' end m3 r94 m3, linkages s3 o93 s3 (s phosphorothioate, o phosphodiester), T or U not given here
B8: GA170: PCSK9 gRNA; protospacer CCAGGACCGCCTGGAGCTGA (SEQ ID NO: 164) (nucleic acid)
guide: CCAGGACCGCCUGGAGCUGAGUUUUAGAGCUAGAAAUAGCAAGUUAAAAUAAGGCUAGUCCGUUAUCAACUUGAAAAAGUGGCACCGAGUCGGUGCUUUU
modifications: sugars from the 5' end m3 r94 m3, linkages s3 o93 s3 (s phosphorothioate, o phosphodiester), T or U not given here
B9: GA179: PCSK9 gRNA; protospacer GAGTGGCGACCTGCTGGAGC (SEQ ID NO: 173) (nucleic acid)
guide: mG*mA*mG*rUrGrGrCrGrArCrCrUrGrCrUrGrGrArGrCrGrUrUrUrUrArGrArGrCrUrArGrArArArUrArGrCrArArGrUrUrArArArArUrArArGrGrCrUrArGrUrCrCrGrUrUrArUrCrArArCrUrUrGrArArArArArGrUrGrGrCrArCrCrGrArGrUrCrGrGrUrGrCrU*mU*mU*mU
B10: GA177: PCSK9 gRNA; protospacer GGTCGCCACTCATCTTCACC (SEQ ID NO: 171) (nucleic acid)
guide: GGUCGCCACUCAUCUUCACCGUUUUAGAGCUAGAAAUAGCAAGUUAAAAUAAGGCUAGUCCGUUAUCAACUUGAAAAAGUGGCACCGAGUCGGUGCUUUU
modifications: sugars from the 5' end m3 r94 m3, linkages s3 o93 s3 (s phosphorothioate, o phosphodiester), T or U not given here
B11: GA178: PCSK9 gRNA; protospacer CTCCTTCAGCACCACCACGT (SEQ ID NO: 172) (nucleic acid)
guide: mC*mU*mC*rCrUrUrCrArGrCrArCrCrArCrCrArCrGrUrGrUrUrUrUrArGrArGrCrUrArGrArArArUrArGrCrArArGrUrUrArArArArUrArArGrGrCrUrArGrUrCrCrGrUrUrArUrCrArArCrUrUrGrArArArArArGrUrGrGrCrArCrCrGrArGrUrCrGrGrUrGrCrU*mU*mU*mU
B12: GA169: PCSK9 gRNA; protospacer CGTGCGCAGGAGGACGAGGA (SEQ ID NO: 163) (nucleic acid)
guide: CGUGCGCAGGAGGACGAGGAGUUUUAGAGCUAGAAAUAGCAAGUUAAAAUAAGGCUAGUCCGUUAUCAACUUGAAAAAGUGGCACCGAGUCGGUGCUUUU
modifications: sugars from the 5' end m3 r94 m3, linkages s3 o93 s3 (s phosphorothioate, o phosphodiester), T or U not given here
B13: GA173: PCSK9 gRNA; protospacer CTTGGTGAGGTATCCCCGGC (SEQ ID NO: 167) (nucleic acid)
guide: CUUGGUGAGGUAUCCCCGGCGUUUUAGAGCUAGAAAUAGCAAGUUAAAAUAAGGCUAGUCCGUUAUCAACUUGAAAAAGUGGCACCGAGUCGGUGCUUUU
modifications: sugars from the 5' end m3 r94 m3, linkages s3 o93 s3 (s phosphorothioate, o phosphodiester), T or U not given here

test system: PCSK9 gene; assay: PCSK9 gRNA/SpCas9 editing in primary human hepatocytes (Tables 2, 4); type: cell-based; conditions: 100 ng/RNA/mL; SpCas9 mRNA MS002 1:1 by weight
Procedure, shortened: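 Primary human hepatocytes co-transfected with PCSK9 gRNA plus SpCas9 mRNA (1:1 by weight) at 2500, 500 or 100 ng RNA/mL, or 2500–250 ng/mL for tracr-modified guides. Editing at the target site read by amplicon next-generation sequencing of extracted genomic DNA.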

Molecule	Human Primary Hepatocyte Editing % 100
B1	28.87%
B2	2.37%
B3	0.32%
B4	1.18%
B5	0.22%
B6	0.36%
B7	1.55%
B8	2.9%
B9	1.29%
B10	0.65%
B11	1.26%
B12	5.49%
B13	0.69%

same assay, conditions: 500 ng/RNA/mL; SpCas9 mRNA MS002 1:1 by weight

Molecule	Human Primary Hepatocyte Editing % 500
B2	9.38%
B3	3.52%
B4	5.24%
B5	2.22%
B6	1.26%
B7	7.53%
B8	15.84%
B9	6%
B10	2.67%
B11	5.43%
B12	15.15%
B13	3.94%

same assay, conditions: 2500 ng/RNA/mL; SpCas9 mRNA MS002 1:1 by weight

Molecule	Human Primary Hepatocyte Editing % 2500
B2	31.75%
B3	14.01%
B4	14.74%
B5	17.16%
B6	4.98%
B7	24.81%
B8	31.35%
B9	21.87%
B10	12.57%
B11	18.29%
B12	46.65%
B13	23.38%

test system: PCSK9 gene; assay: PCSK9 gRNA/SpCas9 editing in primary cynomolgus hepatocytes (Tables 2, 22); type: cell-based, cynomolgus monkey; conditions: 100 ng/RNA/mL; SpCas9 mRNA MS002 1:1 by weight

Molecule	Cyno Primary Hepatocyte Editing % 100
B1	3.66%
B2	1.29%
B3	0.51%
B4	1.60%
B5	0.91%
B6	2.11%
B7	1.45%
B8	4.03%
B9	1.06%
B10	0.38%
B11	2.21%
B12	3.45%
B13	2.06%

same assay, conditions: 500 ng/RNA/mL; SpCas9 mRNA MS002 1:1 by weight

Molecule	Cyno Primary Hepatocyte Editing % 500
B1	15.43%
B2	9.06%
B3	2.11%
B4	4.88%
B5	2.45%
B6	8.11%
B7	12.37%
B8	11.48%
B9	4.21%
B10	4.68%
B11	5.78%
B12	18.28%
B13	8.70%

same assay, conditions: 2500 ng/RNA/mL; SpCas9 mRNA MS002 1:1 by weight

Molecule	Cyno Primary Hepatocyte Editing % 2500
B1	45.12%
B2	27.79%
B3	15.58%
B4	18.65%
B5	14.12%
B6	22.65%
B7	44.77%
B8	23.17%
B9	12.94%
B10	15.91%
B11	25.22%
B12	42.38%
B13	35.03%
